Paper PMC8430995

Target: Akt WT (transfected), P31749
Assay: co-immunoprecipitation (K8/K18 IP, Akt immunoblot, quantified)
Details: chain shown with the change, BHK-21 cells transfected with Akt WT, parent: est. 1.0, read off a plot

Sequence of Akt WT (transfected), P31749 (P31749 whole entry): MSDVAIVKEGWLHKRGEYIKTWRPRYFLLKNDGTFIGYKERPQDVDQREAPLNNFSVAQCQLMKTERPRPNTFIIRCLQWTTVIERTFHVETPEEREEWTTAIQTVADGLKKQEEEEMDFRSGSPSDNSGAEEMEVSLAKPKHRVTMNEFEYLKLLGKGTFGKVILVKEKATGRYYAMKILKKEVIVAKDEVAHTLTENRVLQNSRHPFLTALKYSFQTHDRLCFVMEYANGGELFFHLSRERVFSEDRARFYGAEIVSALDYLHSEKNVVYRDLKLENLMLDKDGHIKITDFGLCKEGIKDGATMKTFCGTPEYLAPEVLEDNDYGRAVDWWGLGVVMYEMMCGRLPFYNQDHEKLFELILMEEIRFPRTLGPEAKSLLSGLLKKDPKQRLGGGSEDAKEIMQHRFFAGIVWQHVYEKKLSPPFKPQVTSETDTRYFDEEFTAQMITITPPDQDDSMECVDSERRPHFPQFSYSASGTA

ratio to parent (K18 WT and the K8 mutant) | ratio to parent (K8 WT and the K18 mutant) | Binder
1.2 | – | K8 WT/K18 WT (transfected), P05787;P05783 K8:G434S (protein) chain 1: MSIRVTQKSYKVSTSGPRAFSSRSYTSGPGSRISSSSFSRVGSSNFRGGLGGGYGGASGMGGITAVTVNQSLLSPLVLEVDPNIQAVRTQEKEQIKTLNNKFASFIDKVRFLEQQNKMLETKWSLLQQQKTARSNMDNMFESYINNLRRQLETLGQEKLKLEAELGNMQGLVEDFKNKYEDEINKRTEMENEFVLIKKDVDEAYMNKVELESRLEGLTDEINFLRQLYEEEIRELQSQISDTSVVLSMDNSRSLDMDSIIAEVKAQYEDIANRSRAEAESMYQIKYEELQSLAGKHGDDLRRTKTEISEMNRNISRLQAEIEGLKGQRASLEAAIADAEQRGELAIKDANAKLSELEAALQRAKQDMARQLREYQELMNVKLALDIEIATYRKLLEGEESRLESGMQNMSIHTKTTSGYAGGLSSAYGGLTSPSLSYSLGSSFGSGAGSSSFSRTSSSRAVVVKKIETRDGKLVSESSDVLPK chain 2: MSFTTRSTFSTNYRSLGSVQAPSYGARPVSSAASVYAGAGGSGSRISVSRSTSFRGGMGSGGLATGIAGGLAGMGGIQNEKETMQSLNDRLASYLDRVRSLETENRRLESKIREHLEKKGPQVRDWSHYFKIIEDLRAQIFANTVDNARIVLQIDNARLAADDFRVKYETELAMRQSVENDIHGLRKVIDDTNITRLQLETEIEALKEELLFMKKNHEEEVKGLQAQIASSGLTVEVDAPKSQDLAKIMADIRAQYDELARKNREELDKYWSQQIEESTTVVTTQSAEVGAAETTLTELRRTVQSLEIDLDSMRNLKASLENSLREVEARYALQMEQLNGILLHLESELAQTRAEGQRQAQEYEALLNIKVKLEAEIATYRRLLEDGEDFNLGDALDSSNSMQTIQKTTTRRIVDGKVVSETNDTKVLRH
1.7 | – | K8 WT/K18 WT (transfected), P05787;P05783 K8:G62C (protein) chain 1: MSIRVTQKSYKVSTSGPRAFSSRSYTSGPGSRISSSSFSRVGSSNFRGGLGGGYGGASGMGCITAVTVNQSLLSPLVLEVDPNIQAVRTQEKEQIKTLNNKFASFIDKVRFLEQQNKMLETKWSLLQQQKTARSNMDNMFESYINNLRRQLETLGQEKLKLEAELGNMQGLVEDFKNKYEDEINKRTEMENEFVLIKKDVDEAYMNKVELESRLEGLTDEINFLRQLYEEEIRELQSQISDTSVVLSMDNSRSLDMDSIIAEVKAQYEDIANRSRAEAESMYQIKYEELQSLAGKHGDDLRRTKTEISEMNRNISRLQAEIEGLKGQRASLEAAIADAEQRGELAIKDANAKLSELEAALQRAKQDMARQLREYQELMNVKLALDIEIATYRKLLEGEESRLESGMQNMSIHTKTTSGYAGGLSSAYGGLTSPGLSYSLGSSFGSGAGSSSFSRTSSSRAVVVKKIETRDGKLVSESSDVLPK chain 2: MSFTTRSTFSTNYRSLGSVQAPSYGARPVSSAASVYAGAGGSGSRISVSRSTSFRGGMGSGGLATGIAGGLAGMGGIQNEKETMQSLNDRLASYLDRVRSLETENRRLESKIREHLEKKGPQVRDWSHYFKIIEDLRAQIFANTVDNARIVLQIDNARLAADDFRVKYETELAMRQSVENDIHGLRKVIDDTNITRLQLETEIEALKEELLFMKKNHEEEVKGLQAQIASSGLTVEVDAPKSQDLAKIMADIRAQYDELARKNREELDKYWSQQIEESTTVVTTQSAEVGAAETTLTELRRTVQSLEIDLDSMRNLKASLENSLREVEARYALQMEQLNGILLHLESELAQTRAEGQRQAQEYEALLNIKVKLEAEIATYRRLLEDGEDFNLGDALDSSNSMQTIQKTTTRRIVDGKVVSETNDTKVLRH
– | 1.2 | K8 WT/K18 WT (transfected), P05787;P05783 K18:D238E; K18:D396E (protein) chain 1: MSIRVTQKSYKVSTSGPRAFSSRSYTSGPGSRISSSSFSRVGSSNFRGGLGGGYGGASGMGGITAVTVNQSLLSPLVLEVDPNIQAVRTQEKEQIKTLNNKFASFIDKVRFLEQQNKMLETKWSLLQQQKTARSNMDNMFESYINNLRRQLETLGQEKLKLEAELGNMQGLVEDFKNKYEDEINKRTEMENEFVLIKKDVDEAYMNKVELESRLEGLTDEINFLRQLYEEEIRELQSQISDTSVVLSMDNSRSLDMDSIIAEVKAQYEDIANRSRAEAESMYQIKYEELQSLAGKHGDDLRRTKTEISEMNRNISRLQAEIEGLKGQRASLEAAIADAEQRGELAIKDANAKLSELEAALQRAKQDMARQLREYQELMNVKLALDIEIATYRKLLEGEESRLESGMQNMSIHTKTTSGYAGGLSSAYGGLTSPGLSYSLGSSFGSGAGSSSFSRTSSSRAVVVKKIETRDGKLVSESSDVLPK chain 2: MSFTTRSTFSTNYRSLGSVQAPSYGARPVSSAASVYAGAGGSGSRISVSRSTSFRGGMGSGGLATGIAGGLAGMGGIQNEKETMQSLNDRLASYLDRVRSLETENRRLESKIREHLEKKGPQVRDWSHYFKIIEDLRAQIFANTVDNARIVLQIDNARLAADDFRVKYETELAMRQSVENDIHGLRKVIDDTNITRLQLETEIEALKEELLFMKKNHEEEVKGLQAQIASSGLTVEVEAPKSQDLAKIMADIRAQYDELARKNREELDKYWSQQIEESTTVVTTQSAEVGAAETTLTELRRTVQSLEIDLDSMRNLKASLENSLREVEARYALQMEQLNGILLHLESELAQTRAEGQRQAQEYEALLNIKVKLEAEIATYRRLLEDGEDFNLGDALESSNSMQTIQKTTTRRIVDGKVVSETNDTKVLRH
1.8 | – | K8 WT/K18 WT (transfected), P05787;P05783 K8:R302C (protein) chain 1: MSIRVTQKSYKVSTSGPRAFSSRSYTSGPGSRISSSSFSRVGSSNFRGGLGGGYGGASGMGGITAVTVNQSLLSPLVLEVDPNIQAVRTQEKEQIKTLNNKFASFIDKVRFLEQQNKMLETKWSLLQQQKTARSNMDNMFESYINNLRRQLETLGQEKLKLEAELGNMQGLVEDFKNKYEDEINKRTEMENEFVLIKKDVDEAYMNKVELESRLEGLTDEINFLRQLYEEEIRELQSQISDTSVVLSMDNSRSLDMDSIIAEVKAQYEDIANRSRAEAESMYQIKYEELQSLAGKHGDDLRCTKTEISEMNRNISRLQAEIEGLKGQRASLEAAIADAEQRGELAIKDANAKLSELEAALQRAKQDMARQLREYQELMNVKLALDIEIATYRKLLEGEESRLESGMQNMSIHTKTTSGYAGGLSSAYGGLTSPGLSYSLGSSFGSGAGSSSFSRTSSSRAVVVKKIETRDGKLVSESSDVLPK chain 2: MSFTTRSTFSTNYRSLGSVQAPSYGARPVSSAASVYAGAGGSGSRISVSRSTSFRGGMGSGGLATGIAGGLAGMGGIQNEKETMQSLNDRLASYLDRVRSLETENRRLESKIREHLEKKGPQVRDWSHYFKIIEDLRAQIFANTVDNARIVLQIDNARLAADDFRVKYETELAMRQSVENDIHGLRKVIDDTNITRLQLETEIEALKEELLFMKKNHEEEVKGLQAQIASSGLTVEVDAPKSQDLAKIMADIRAQYDELARKNREELDKYWSQQIEESTTVVTTQSAEVGAAETTLTELRRTVQSLEIDLDSMRNLKASLENSLREVEARYALQMEQLNGILLHLESELAQTRAEGQRQAQEYEALLNIKVKLEAEIATYRRLLEDGEDFNLGDALDSSNSMQTIQKTTTRRIVDGKVVSETNDTKVLRH
